# Earlier results, collected in article PMC7785802, “Therapeutic Efficacy of a Trichinella Spiralis Paramyosin-Derived Peptide Modified With a Membrane-Targeting Signal in Mice With Antigen-Induced Arthritis” (Frontiers in Microbiology, 2020).
# Read-outs that look alike come from different tables or passages of the source.
# B1: CD59: a heavily glycosylated protein of 20 kDa that can specifically inhibit MAC formation (protein, UniProt P13987 26-102, looked up)
# CD59 glycoprotein: LQCYNCPNPTADCKTAVNCSSDFDACLITKAGLQVYNKCWKFEHCNFNDVTTRLRENELTYYCCKKDLCNFNEQLEN
# Tested on: antigen-induced arthritis (AIA)
# Details: intraarticular injection prior to disease onset or at disease flares, animal models, Williams et al., 2004, Durigutto et al., 2013
# Excerpt: As MAC is a therapeutic target in RA, complement inhibitors have shown potential for preventing and treating arthritis in animal models (Goodfellow et al., [2000]; Durigutto et al., [2013]). Moreover, local or targeted inhibition might be an effective way to circumvent the adverse effects of systemic complement inhibition. […] More precisely, intraarticular injection of membrane-targeted CD59 or Fc fusio ... || RA is an autoimmune disease that has been confirmed to involve inappropriate complement activation in the joint cavity, making the delivery of anti-complement drugs into the joint cavity an ideal therapeutic strategy to relieve RA progression (Dijkstra et al., [2019]). […] Murine AIA, a well-recognized acute complement-dependent arthritis, imitates the pathology of RA (van den Berg et al., [2007]). As complement activation is involved in the process of AIA, this model has been utilized in many studies to assess the therapeutic efficacy of complement inhibitors that might affect various stages of complement activation. In animal models, intraarticular injection of complement inhibitors (including sCR1, CD59, and anti-C5 neutralizing recombinant mini-antibody) prior to ...
molecule,measurement,setting,value
B1,effect on joint swelling and development of AIA,"ref Goodfellow et al., 2000",alleviate joint swelling and the development of AIA
same,effect on joint swelling and development of AIA,"ref Harris et al., 2002",alleviate joint swelling and the development of AIA
